In patent publication US20160272680A1 (Bristol-Myers Squibb, published 2016) one finds IC50 data, which are given here for 6 molecules.

Bridge positions count the residues as written; N and C are the ends. Square brackets hold non-standard residues; d marks the D form. Hyp = O=C(O)[C@@H]1C[C@@H](O)CN1; NMeNle = CCCC[C@H](NC)C(=O)O; NMeA = CN[C@@H](C)C(=O)O; Dap = NC[C@H](N)C(=O)O

For orientation: IC50 means the midpoint of a concentration-inhibition curve.

T1 sequence (Q9NZQ7 other isoform, or with tags, fused parts or gaps limits assumed): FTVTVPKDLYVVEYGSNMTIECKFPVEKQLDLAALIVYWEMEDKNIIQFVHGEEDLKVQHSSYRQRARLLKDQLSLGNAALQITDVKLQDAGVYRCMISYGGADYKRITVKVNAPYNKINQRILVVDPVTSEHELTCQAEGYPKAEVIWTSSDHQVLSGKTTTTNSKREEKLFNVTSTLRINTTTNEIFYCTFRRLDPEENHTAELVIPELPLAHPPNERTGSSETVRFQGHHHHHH

The first assay has as its target T1, hPDL1(19-239)-TVMV-His (human, UniProt Q9NZQ7 19-239).
T1 construct: Expressed in HEK293T cells; The text says amino acids 18-239, but the construct is named hPD-L1(19-239); The whole entry, including the TVMV site and His tag, is the protein used in the assay; also called PD-L1-TVMV-His; PD-L1-His
As to the kind of experiment: HTRF competition of PD-1-Ig binding to PD-L1-His. As for the experimental part:
Homogenous Time-Resolved Fluorescence (HTRF) Assays of Binding of Soluble PD-1 to Soluble PD-L1. Soluble PD-1 and soluble PD-L1 refers to proteins with carboxyl-end truncations that remove the transmembrane-spanning regions and are fused to heterologous sequences, specifically the Fc portion of the human immunoglobuling G sequence (Ig) or the hexahistidine epitope tag (His). All binding studies were performed in an HTRF assay buffer consisting of dPBS supplemented with 0.1% (w/v) bovine serum albumin and 0.05% (v/v) Tween-20. For the PD-1-Ig/PD-L1-His binding assay, inhibitors were pre-incubated with PD-L1-His (10 nM final) for 15 m in 4 μl of assay buffer, followed by addition of PD-1-Ig (20 nM final) in 1 μl of assay buffer and further incubation for 15 m. PD-L1 fusion proteins from either human, cynomologous macaques, mouse, or other species were used. HTRF detection was achieved using europium crypate-labeled anti-Ig monoclonal antibody (1 nM final) and allophycocyanin (APC) labeled anti-His monoclonal antibody (20 nM final). Antibodies were diluted in HTRF detection buffer and 5 μl was dispensed on top of binding reaction. The reaction was allowed to equilibrate for 30 minutes and signal (665 nm/620 nm ratio) was obtained using an EnVision fluorometer. Additional binding assays were established between PD-1-Ig/PD-L2-His (20 and 5 nM, respectively), CD80-His/PD-L1-Ig (100 and 10 nM, respectively) and CD80-His/CTLA4-Ig (10 and 5 nM, respectively). Binding/competition studies between biotinylated Compound No. 71 and human PD-L1-His were performed as follows. Macrocyclic peptide inhibitors were pre-incubated with PD-L1-His (10 nM final) for 60 minutes in 4 μl of assay buffer followed by addition of biotinylated Compound No. 71 (0.5 nM final) in 1 μl of assay buffer. Binding was allowed to equilibrate for 30 minutes followed by addition of europium crypated labeled Streptavidin (2.5 pM final) and APC-labeled anti-His (20 nM final) in 5 μl of HTRF buffer. […]
For orientation: In TR-FRET formats the signal depends on donor and acceptor labels being close together.
On to {CH2CO}-Y[NMeA]NP[Dap]L[Hyp]WGW[NMeNle][NMeNle]LCG-{N‑(3-aminopropyl)morpholine amide} (thioether N-14, Macrocyclic peptide) [Example 13093], for which the IC50 was 8.17 nM. This lies in the single-digit nanomolar range.
{CH2CO}-Y[NMeA]NP[Dap]L[Hyp]WGW[NMeNle][NMeNle]LCG-{4‑phenylpiperidine amide} (thioether N-14, Macrocyclic peptide) [Example 13088] displayed an IC50 of 50 nM.
The same measure, in the same setting: the value for {CH2CO}-Y[NMeA]NP[Dap]L[Hyp]WGW[NMeNle][NMeNle]LCG-{methyl 3‑aminopropionate} (thioether N-14, Macrocyclic peptide) [Example 13105] was 10 nM.

For another assay, the target named is T1, hPDL1(19-239)-TVMV-His. Briefly: HTRF competition of PD-1-Ig binding to PD-L1-His; code B=0.004-0.0099 µM. As for the experimental part: Homogenous Time-Resolved Fluorescence (HTRF) Assays of Binding of Soluble PD-1 to Soluble PD-L1. Soluble PD-1 and soluble PD-L1 refers to proteins with carboxyl-end truncations that remove the transmembrane-spanning regions and are fused to heterologous sequences, specifically the Fc portion of the human immunoglobuling G sequence (Ig) or the hexahistidine epitope tag (His). All binding studies were performed in an HTRF assay buffer consisting of dPBS supplemented with 0.1% (w/v) bovine serum albumin and 0.05% (v/v) Tween-20. For the PD-1-Ig/PD-L1-His binding assay, inhibitors were pre-incubated with PD-L1-His (10 nM final) for 15 m in 4 μl of assay buffer, followed by addition of PD-1-Ig (20 nM final) in 1 μl of assay buffer and further incubation for 15 m. PD-L1 fusion proteins from either human, cynomologous macaques, mouse, or other species were used. HTRF detection was achieved using europium crypate-labeled anti-Ig monoclonal antibody (1 nM final) and allophycocyanin (APC) labeled anti-His monoclonal antibody (20 nM final). Antibodies were diluted in HTRF detection buffer and 5 μl was dispensed on top of binding reaction. The reaction was allowed to equilibrate for 30 minutes and signal (665 nm/620 nm ratio) was obtained using an EnVision fluorometer. Additional binding assays were established between PD-1-Ig/PD-L2-His (20 and 5 nM, respectively), CD80-His/PD-L1-Ig (100 and 10 nM, respectively) and CD80-His/CTLA4-Ig (10 and 5 nM, respectively). Binding/competition studies between biotinylated Compound No. 71 and human PD-L1-His were performed as follows. Macrocyclic peptide inhibitors were pre-incubated with PD-L1-His (10 nM final) for 60 minutes in 4 μl of assay buffer followed by addition of biotinylated Compound No. 71 (0.5 nM final) in 1 μl of assay buffer. Binding was allowed to equilibrate for 30 minutes followed by addition of europium crypated labeled Streptavidin (2.5 pM final) and APC-labeled anti-His (20 nM final) in 5 μl of HTRF buffer. The reaction was allowed to equilibrate for 30 m and signal (665 nm/620 nm ratio) was obtained using an EnVision fluorometer.
In the case of {CH2CO}-Y[NMeA]NP[Dap]L[Hyp]WGW[NMeNle][NMeNle]LCG-{3‑aminopropanamide} (thioether N-14, Macrocyclic peptide) [Example 13110], the IC50 lay in the range of 4 to 9.9 nM.
Still for that read-out and setting: the same measure for {CH2CO}-Y[NMeA]NP[Dap]L[Hyp]WGW[NMeNle][NMeNle]LCG-{piperazin‑2‑one} (thioether N-14, Macrocyclic peptide) [Example 13114]: 4 to 9.9 nM.
The molecule {CH2CO}-Y[NMeA]NP[Dap]L[Hyp]WGW[NMeNle][NMeNle]LCG-phenylpiperazine (thioether N-14, Macrocyclic peptide) [Example 13117] yielded an IC50 of 4 to 9.9 nM.
